The record followed here is PMC3538841.

The target of this assay is HA ectodomain of B/Florida/4/2006 (influenza B virus B/Florida/4/2006 (Yamagata lineage)). Description: negative stain EM reconstruction.

For the substance “HA ectodomain of B/Florida/4/2006 (domain or fragment)”, the stoichiometry N amounted to 3.
